From patent US20120328512A1 (BRACCO IMAGING S P A, published 2012)
Bridge positions count the residues as written; N and C are the ends. Square brackets hold non-standard residues; d marks the D form. Phe(4-F) = N[C@@H](Cc1ccc(F)cc1)C(=O)O; Cha = N[C@@H](CC1CCCCC1)C(=O)O; AEEA = NCCOCCOCC(=O)O

T1: fibrin (human fibrinogen clotted with human thrombin on glass coverslips) (human, UniProt P02671 36-629; P02675 45-491; P02679 27-437, limits assumed)
T1 construct: also called fibrin-coated coverslips
T1 sequence (looked up) 1: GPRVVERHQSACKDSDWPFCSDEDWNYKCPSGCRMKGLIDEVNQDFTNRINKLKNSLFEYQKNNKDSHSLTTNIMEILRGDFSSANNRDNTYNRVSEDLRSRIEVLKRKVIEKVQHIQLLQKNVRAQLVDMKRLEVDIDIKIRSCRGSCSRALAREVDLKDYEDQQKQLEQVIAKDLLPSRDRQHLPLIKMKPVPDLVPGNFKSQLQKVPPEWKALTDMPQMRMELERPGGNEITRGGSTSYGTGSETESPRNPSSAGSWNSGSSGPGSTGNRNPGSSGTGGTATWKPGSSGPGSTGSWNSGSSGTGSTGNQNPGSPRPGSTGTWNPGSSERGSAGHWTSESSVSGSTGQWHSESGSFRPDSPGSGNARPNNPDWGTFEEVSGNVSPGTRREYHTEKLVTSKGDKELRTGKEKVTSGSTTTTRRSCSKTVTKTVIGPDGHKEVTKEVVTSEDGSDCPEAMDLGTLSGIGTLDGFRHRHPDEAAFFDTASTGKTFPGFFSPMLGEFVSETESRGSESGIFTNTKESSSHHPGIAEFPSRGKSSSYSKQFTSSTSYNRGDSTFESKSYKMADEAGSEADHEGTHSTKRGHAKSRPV
T1 sequence (looked up) 2: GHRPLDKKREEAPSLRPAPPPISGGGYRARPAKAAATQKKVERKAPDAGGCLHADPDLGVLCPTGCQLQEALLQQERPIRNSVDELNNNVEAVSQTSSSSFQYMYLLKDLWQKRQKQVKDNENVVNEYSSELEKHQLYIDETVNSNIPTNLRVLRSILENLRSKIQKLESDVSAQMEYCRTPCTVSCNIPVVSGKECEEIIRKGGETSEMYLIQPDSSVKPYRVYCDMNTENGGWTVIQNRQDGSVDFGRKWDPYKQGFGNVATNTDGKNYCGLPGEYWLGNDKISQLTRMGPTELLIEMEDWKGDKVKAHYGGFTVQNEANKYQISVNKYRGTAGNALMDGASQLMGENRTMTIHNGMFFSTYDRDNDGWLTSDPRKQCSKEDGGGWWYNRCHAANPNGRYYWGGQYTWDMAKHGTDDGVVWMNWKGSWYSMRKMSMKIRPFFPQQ
T1 sequence (looked up) 3: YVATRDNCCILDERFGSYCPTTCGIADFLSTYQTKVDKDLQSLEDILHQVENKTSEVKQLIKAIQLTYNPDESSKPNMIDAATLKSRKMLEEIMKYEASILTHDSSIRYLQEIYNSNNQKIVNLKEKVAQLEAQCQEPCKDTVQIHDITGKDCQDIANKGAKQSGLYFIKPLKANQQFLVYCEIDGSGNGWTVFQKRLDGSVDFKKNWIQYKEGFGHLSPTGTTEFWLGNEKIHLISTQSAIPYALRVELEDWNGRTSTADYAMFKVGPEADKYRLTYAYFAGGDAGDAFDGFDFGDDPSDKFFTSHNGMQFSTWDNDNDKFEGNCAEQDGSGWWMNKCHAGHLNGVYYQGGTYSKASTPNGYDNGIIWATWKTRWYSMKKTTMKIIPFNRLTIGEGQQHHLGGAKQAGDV

T2: DDE
T2 chain 1: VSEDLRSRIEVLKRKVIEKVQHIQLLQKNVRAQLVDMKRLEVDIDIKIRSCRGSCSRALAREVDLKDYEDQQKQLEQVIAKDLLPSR
T2 chain 2: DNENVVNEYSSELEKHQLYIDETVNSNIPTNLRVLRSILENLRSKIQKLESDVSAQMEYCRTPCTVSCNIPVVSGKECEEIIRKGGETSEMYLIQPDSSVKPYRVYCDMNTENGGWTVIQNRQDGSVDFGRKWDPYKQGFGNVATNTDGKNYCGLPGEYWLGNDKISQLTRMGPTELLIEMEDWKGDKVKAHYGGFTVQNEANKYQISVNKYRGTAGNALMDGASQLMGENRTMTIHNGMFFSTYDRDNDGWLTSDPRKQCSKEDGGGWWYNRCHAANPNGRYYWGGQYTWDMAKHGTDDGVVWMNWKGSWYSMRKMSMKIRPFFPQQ
T2 chain 3: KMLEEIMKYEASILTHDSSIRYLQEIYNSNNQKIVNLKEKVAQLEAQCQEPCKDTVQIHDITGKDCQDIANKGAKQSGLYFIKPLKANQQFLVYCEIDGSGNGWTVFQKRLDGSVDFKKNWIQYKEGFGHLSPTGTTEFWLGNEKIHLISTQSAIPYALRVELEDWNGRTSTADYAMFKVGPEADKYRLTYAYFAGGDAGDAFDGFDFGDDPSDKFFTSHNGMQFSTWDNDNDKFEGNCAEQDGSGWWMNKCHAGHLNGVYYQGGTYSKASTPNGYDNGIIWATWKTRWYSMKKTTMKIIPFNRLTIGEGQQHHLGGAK
T2 chain 4: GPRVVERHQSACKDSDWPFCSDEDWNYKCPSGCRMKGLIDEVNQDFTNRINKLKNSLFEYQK
T2 chain 5: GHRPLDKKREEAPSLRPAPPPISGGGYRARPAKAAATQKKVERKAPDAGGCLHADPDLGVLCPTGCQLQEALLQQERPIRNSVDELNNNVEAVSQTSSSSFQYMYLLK
T2 chain 6: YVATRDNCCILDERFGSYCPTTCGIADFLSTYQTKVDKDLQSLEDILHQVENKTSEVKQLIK

B1: Seq024-PL1 (peptide)
peptide: Ac-SGSGSGSGWQPCPWESWTFCWDPGGGK-NH2
modifications: disulfide 12-20; not fully specified (residue 27); printed as Ac-SGSGSGSGWQPC*PWESWTFC*WDPGGGK(DSPE-PG4-Glut)-NH2
B2: Seq023-PL1 (peptide)
peptide: H-RWQPCPWESWTFCWDPGGGK-NH2
modifications: disulfide 5-13; not fully specified (residue 20); printed as RWQPC*PWESWTFC*WDPGGGK(DSPE-PG4-Glut)-NH2
B3: Seq016-PL1 (peptide)
peptide: Ac-GWQPCPWESWTFCWDPGGGK-NH2
modifications: disulfide 5-13; not fully specified (residue 20); printed as Ac-GWQPC*PWESWTFC*WDPGGGK(DSPE-PG4-Glut)-NH2
B4: Seq017-PL1 (peptide)
peptide: Ac-SGSG[AEEA]WQPCPWESWTFCWDPGGGK-NH2
modifications: disulfide 9-17; not fully specified (residue 24); printed as Ac-SGSGJWQPC*PWESWTFC*WDPGGGK(DSPE-PG4-Glut)-NH2
B5: Seq005-PL1 (peptide)
peptide: Ac-WQPCPAESWTFCWDPGGGK-NH2
modifications: disulfide 4-12; not fully specified (residue 19); printed as Ac-WQPC*PAESWTFC*WDPGGGK(DSPE-PG4-Glut)-NH2
B6: Seq000 (peptide)
peptide: WQPCPWESWTFCWDPGGGK
modifications: N-terminal acetyl (Ac-); C-terminal amide (-NH2); disulfide between the two C* cysteines
notes: also called comparative peptide

biological target: T1, fibrin (human fibrinogen clotted with …); experiment: flow chamber test of targeted microvesicles on fibrin-coated coverslips
Protocol: Five mL of a solution of BSA 1% w/v in PBS pH 7.4 were added into a 60 mm Petri Dish containing one coverslip, and incubated at 37° C. for 15 min. Then the coverslip was washed three times with 5 ml of Tween 80/PBS (0.1%, v:v). Twenty five μL of human thrombin solution at 5 U/mL were added per mL of human fibrinogen solution (0.5 mg/mL in 50 mM sodium phosphate, NaCl 280 mM, pH 7.4) and delicately mixed. Five mL of this solution were immediately distributed in each Petri dish. The coverslips were incubated for one hour at 37° C. and then dried overnight at 45° C.
Binding studies of targeted microvesicles were carried out using a parallel-plate flow chamber (FCS2, Bioptech Inc., Butler, Pa., USA) with a chamber gasket of 0.25 mm in thickness, with a customized adapter for upside-down chamber inversion. The coated coverslip was inserted as a plate of the flow chamber. Gas-filled Microvesicles (5×10⁶ bubbles/mL in 50% human plasma in PBS) were drawn through the flow chamber using an adjustable infusion pump (Auto Syringe® AS50 Infusion Pump, Baxter, Deerfield, Ill., USA) with a 60 mL syringe (Terumo). The pump flow rate was adjusted to 1 mL/min to obtain the desired shear rate of about 114 s⁻¹. After 10 minutes, the flow was stopped and pictures were taken randomly on different positions on the coverslip (on surfaces of about 0.025 mm²) using a 40× objective and a CCD monochrome camera (F-View II, Soft Imaging Systems, Germany) connected to an inverted Olympus IX 50 microscope. The number of microvesicles on each picture was determined, averaged with respect to the total number of pictures and the obtained value was then divided by ten (to obtain the “slope”, i.e. the average amount of bound microvesicles per minute).

binding result | Binder
binds | B1
binds | Ac-WQPCPAESWTFCWDPGAGSGK-NH2 (disulfide 4-12; not fully specified (residue 21), Linker GAGSGK) [Seq005-PL5]
binds | Ac-WQPCPAESWTFCWDPGSAGSK-NH2 (disulfide 4-12; not fully specified (residue 21), Linker GSAGSK) [Seq005-PL4]
binds | B2
binds | B3
binds | B4
binds | B5

biological target: DDE; experiment: competition fluorescence polarization: unlabeled peptide against Seq000-CF5 tracer on DDE; n = 2

Rel IC50 (ratio to the reference peptide) | Binder
1.04 | Ac-GWQPCPWESWTFCWDPGGGK-NH2 (disulfide 5-13) [Seq016-P]
0.494 | Ac-WQPCPWESWT[Cha]CWDPGGGK-NH2 (disulfide 4-12) [Seq018-P]
0.601 | Ac-WQPCPWESWT[Phe(4-F)]CWDPGGGK-NH2 (disulfide 4-12) [Seq019-P]

Biological target: T2, DDE
Experiment: competition fluorescence polarization on DDE; this is the reference peptide, 1 by definition

Rel IC50 | Binder
1 ratio to the reference peptide | B6
